The domain aggregation screens of Martell et al. (2025)

Test: soluble fraction after stress (log2 fold change); higher = more stays soluble; pooled small domains, quantitative proteomics
Conditions: stress: 50 degC
Procedure, shortened: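 The stress applied to every library was 50°C. These custom libraries of small protein domains were pooled and measured at high throughput with quantitative proteomics as the read-out. Aggregation propensity is expressed as the base-two logarithm of the fold change in how much of each protein remains soluble. The higher the value, the more of that protein stays in solution.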

Row | Sequence | soluble fraction (log2)
1 | HMDNNFIQSLYPIAIGISKNQLDPWDLINGWVEYYLKNKEKYINHPNLKAVAVLKMKGLLIDHFRKS | -3.57
2 | HMDNPKGNLQEAVQAKGNEPIEYRVLNVDGPDHAREFKIAVFIGGKRKGTGVGNSKKKAEEIAAEKAFKRM | 0.127
3 | HMDNPVPVIITDQNFQPQLWKNVGVPTDTLFHELSAANQRKLENLMKTMIQTPLTDNGKISGYAFYSK | 0.0665
4 | HMDNREKLRQEFLENLKELQEQNDIPQQEIDRVILDYDGVAEFLEDEGALKRYGGQLVDMTAYRAGAIPS | -0.0987
5 | HMDNRLFKMLYYLLDKERATAPELAAEFEVSTRTIYRDVEALSSAGIPIYAEPGRNGGIYLLQD | -2.21
6 | HMDNTSNVEKTLRFIRQRGKVSRKEVETLLGSSKFPAISALNELLAENKIVKTGSGPAVRYSVS | -0.0887
7 | HMDNVINDGMQVRFTGNVDINGTPLKIYDRIYTAEGISDDTVVLMLGNDVYARVYLSDVVPAD | -0.405
8 | HMDNWLSGLAVEADRMILTQPGEVFDRLSRAFEATLIRRALASTGGRRIEAAHLLGIGRNTITRKIQDLGL | -2.49
9 | HMDPDARQDAEVWLLDFLSAGPRTAQEIFTAARVEGHTRVTVKRAKATAGIQSVKQDFDGPWVWVLPGSG | -0.491
10 | HMDPFAYEVKVTDLAAGSSEIRTVYTEQGSFNIPSGMSGNLKIQVRSASMYDEVEPSDWYTIGEEDIN | -0.0779
11 | HMDPLASLTPREREVLSLMAQGLSNLAVAERLVVSAGAVEKHISSIFTKLDLAPSEHEHRRVLAVLRYVAG | -3.2
12 | HMDPPISNDARNAINAKLMKFSELHPNEMKKLVEAYKKEFKVSKISPITLARQGEFLSHAISKIDDT | 0.0248
13 | HMDPQDGTVKFFNGARGFGFITPDGGGADVFVHVSAVERAGLTQLVEGQRVNFQTLPDTKGKGPKAVNLKV | 0.0729
14 | HMDPSDQLYTVPPSAEGLRLDLFLVQHVPHMTRALATQLTGAGQVRVNGRRAKKGDRLPSGAQVRLEQAP | -0.256
15 | HMDPSHGESRENLDIMRIIDETHLEYPSWGYRKMTDHLRANHGYTINRKRVRRLMRLMDIIALFPG | -1.47
16 | HMDPSVTGLLTRLGISPQTAQELAGQYEEPYILEKIAIVEAHPEYVKNAAGFVITALQEDWKD | -0.255
17 | HMDPTHDMHFLVKDQVTGQPLPNMPYRLQLDNGQTLTGRTDALGMTEKISGHSPHIASIEVPY | 0.18
18 | HMDPVILDINSVKALLGISNKADFMAELSRLVVTEGDKKMIIPLAKEVGIDNVAVYKRNEIENISNYK | -0.1
19 | HMDQAEDVLSIPVDALMRGNQVYIKDDTVTEQQGPIPAGFKAVEVETGLISDSYVEIKSGLSEGDTVYVAE | 0.141
20 | HMDQESFGYFHVKYADVKQVADLVQKLNIPAVTWADERTRRLVALGSPATLQRISQVLNMVDL | -0.721
21 | HMDQHPYGEDSFRGDNPPAGFDIKGNEDSMKFHEPSSPWYGRTIAEVWFRSAAAAEAAGFVNAV | -0.113
22 | HMDQINNDLRKLIEFLPEDQKTVLKMRHFQEMSFKEIAKATGVSINTALGRMRYALINLRKLIEENEI | -1.41
23 | HMDQPLIEPLSERELEVLSLIAAGYSNAEIAERLVIAVGTVKRHINNLYGKLGAGSRTQALAIAREIGLM | 0.0589
24 | HMDQTKYDAIITEAKKLTAEGQYKESEEKLATIPVSDLGKPHYSIVKETVEKLNNQNNEGLKRQEEVAVE | -0.02
25 | HMDQVLHQLVEVLRRSEIRISPAETLDAFKVLRNVGIDNKSLLREALALTLAKSIHEKIIFYETFDEFFT | -1.16
26 | HMDRADIDAVDAEWVRATMERLGLRAKHIESHTGISKSTLSILLNGHRPLTRWHKIAFYYLFKHIEF | -2.68
27 | HMDRDQNVEEGQRSLKSEMGRFGLLIANMDDLAERVNYGNAEDMYAAIGAGDLRLMQVVHAAEEMLG | 0.127
28 | HMDRENNITAGREILEKELSRLALNMKMVNLQDYAARFNVKHSDDILAGIGAGDIRPAHIVNAIAEKLT | 0.144
29 | HMDREQLELYVGEVRVLQVGELRRIAIGNGKVLQASALDRGQLLLIPEAPGQSVLYLWTRDGTERHLSISV | -0.203
30 | HMDRESFIKLGRELARSAFAHVGQKSTEKALETAADVLRLKDPNEVLARLGSAELTGRQVVQAIYPELI | -0.0704
